Residue numbers refer to the chain shown, from its start.
B1: second SARS-CoV-2/HCoV-HKU1 cross-reactive mAb from the CC40 donor (its name is not printed in the text) (antibody, V domains shown)
VH: EVQLVESGGGVVQPGRSLRLSCVASGFTFSNYGMHWVRQAPGKGLEWVAVMSYDGSVTYYGDSVRGRFTISRDNSKNTLYLQMSSLRTDDTGVYYCAKGQPLDDIWGLGTLVTVSS
VL: EIVMTQSPLSLPVSLGQSASISCRSSQSLVHTDGITYLSWFQQRPGQSPRRLLYKVSNRDSGVPDRFSGSGSGTDFTLKISRVEAEDVGVYYCLQGTYWPWTFGQGTKVEIK
notes: also called one of the two cross-reactive mAbs from the CC40 donor
B2: mAb CC9.2 (IgG) (antibody, V domains shown)
VH: EVQLVESGGGLVQPGRSLRLSCVAPGFTLGGYGMHWVRQAPGKGLEWVGLISYDGSVQKYGSSVKGRFTISKDNSKNTLYLEMNSLRADDTAVYFCVKGASLGDNWGQGTLVTVSS
VL: EIVMTQSPLSLPVTLGQPASISCRSSQSLVYSDGDTYMSWFHQRPGQSPRRLIYKVSNRDFGVPDRFSGSGSGTDFTLKISRVEAEDVGVYYCMQGTHWPYTFGPGTKVEIK
B3: mAb CC9.1 (antibody, V domains shown)
VH: B2 VH
VL: B2 VL with F61S

Biological target: T1, SARS-CoV-2 soluble S ectodomain protein (residue 1-1208), prefusion-stabilized, with T4 fibritin … (SARS-CoV-2, Wuhan-Hu-1 (MN908947), UniProt P0DTC2, K986/V987 replaced by proline residues)
T1 construct: also called SARS-CoV-2 S-protein; whole S protein
Assay: BLI
Conditions: both partners purified

| Binder | binding result |
| --- | --- |
| B1 | binds |
| B2 | binds |
| B3 | binds |

Reference: PMC8134462, “Cross-reactive serum and memory B-cell responses to spike protein in SARS-CoV-2 and endemic coronavirus infection” (Nature Communications, 2021)
